Tests used:
[1] = system: other members of the LDLR family (LDLR, LRP, LRP1 B, VLDLR, apoER2); assay: ^125I-Mesd binding to cells expressing other members of the LDLR family; design: species or system human; settings: ^125I-Mesd 5 nM, 4 hours at 4° C., HEK293, CHO, MEF cells
Method: (§1) Cells (2×10^5) were seeded into 12-well dishes 1 day prior to assay. Ligand-binding buffer (minimal Eagle's medium containing 0.6% BSA with a different concentration of radioligand, 0.6 ml/well) was added to cell monolayers, in the absence or the presence of 500 nM unlabeled RAP or 500 nM unlabeled Mesd, followed with incubation for 0-4 hours at 4° C. Thereafter, overlying buffer containing unbound ligand was removed, and cell monolayers were washed and lysed in low-SDS lysis buffer (62.5 mM Tris-HCl pH 6.8, 0.2% SDS, 10% v/glycerol) and counted.
(§2) To determine whether Mesd binds to other members of the LDLR family, ^125I-Mesd binding analysis was performed with four groups of cells expressing different members of the LDLR family (FIG. 2). In the first experiment, HEK293 cells were transiently transfected with cDNAs for the LDLR, LRP5, LRP6 or empty pcDNA3 vector. […]

[2] = target: T1, other members of the LDLR family (LDLR, LRP, LRP1 B, VLDLR, apoER2) (Homo sapiens, UniProt Q07954); assay: as above; settings: ^125I-Mesd 5 nM, 4 hours at 4° C.
T1 construct: expressed in transfected cells; host or cells: HEK293 (transient HA-LDLR); also endogenous receptors in MEF lines, MCF-7, U87 and SMC
Method: as §1, §2

LRP6 = LRP6 (Homo sapiens, UniProt O75581); assay: ^125I-Mesd cell surface ligand binding to LRP6-transduced HT1080 cells; design: plasmid pCS-Myc-hLRP6 containing the full-length human LRP6 cDNA; HA; expressed in transfected cells; host or cells: human HT1080 cells, stably transduced (pLNCX2 retroviral vector)
Method: To examine whether Mesd binds with high affinity to […] at the cell surface, cell surface ligand binding experiments were performed with cells stably transduced with LRP6 cDNA. Human HT1080 cells, which express undetectable levels of LRP6, were transduced with a viral vector alone (pLNCX2) or with vector containing LRP6 cDNA (Li, Y., Oncogene 23: 9129-9135, 2004) and used for ^125I-Mesd binding (FIG. 1A). ^125I-Mesd (5 nM) reached maximal binding after 2 hours incubation at 4° C. with LRP6-expressing HT1080 cells (FIG. 1A).
(A) Time course of ^125I-Mesd (5 nM) binding to LRP6-transduced HT1080 cells and the control cells. Assay was carried out for the indicated periods at 4° C. in the absence (total) or presence of 500 nM Mesd (non-specific). (B) Saturation binding of ^125I-Mesd to LRP6-transduced HT1080 cells and the control cells. Assay was carried out at indicated concentrations for 3 hours at 4° C. in the absence (total) or presence (non-specific) of 500 nM Mesd. (C) Scatchard plots of data in B. All values are the average of triple determinations with the s.d. indicated by error bars.
as §1

LRP5 = LRP5 (Homo sapiens, UniProt O75197); assay: ^125I-Mesd binding to HEK293 cells transiently transfected with LRP5; settings: ^125I-Mesd 5 nM, 4 hours at 4° C., HEK293 cells transfected with Myc-tagged LRP5
Method: as §1, §2

Sequence of LRP6 (O75581 20-1613): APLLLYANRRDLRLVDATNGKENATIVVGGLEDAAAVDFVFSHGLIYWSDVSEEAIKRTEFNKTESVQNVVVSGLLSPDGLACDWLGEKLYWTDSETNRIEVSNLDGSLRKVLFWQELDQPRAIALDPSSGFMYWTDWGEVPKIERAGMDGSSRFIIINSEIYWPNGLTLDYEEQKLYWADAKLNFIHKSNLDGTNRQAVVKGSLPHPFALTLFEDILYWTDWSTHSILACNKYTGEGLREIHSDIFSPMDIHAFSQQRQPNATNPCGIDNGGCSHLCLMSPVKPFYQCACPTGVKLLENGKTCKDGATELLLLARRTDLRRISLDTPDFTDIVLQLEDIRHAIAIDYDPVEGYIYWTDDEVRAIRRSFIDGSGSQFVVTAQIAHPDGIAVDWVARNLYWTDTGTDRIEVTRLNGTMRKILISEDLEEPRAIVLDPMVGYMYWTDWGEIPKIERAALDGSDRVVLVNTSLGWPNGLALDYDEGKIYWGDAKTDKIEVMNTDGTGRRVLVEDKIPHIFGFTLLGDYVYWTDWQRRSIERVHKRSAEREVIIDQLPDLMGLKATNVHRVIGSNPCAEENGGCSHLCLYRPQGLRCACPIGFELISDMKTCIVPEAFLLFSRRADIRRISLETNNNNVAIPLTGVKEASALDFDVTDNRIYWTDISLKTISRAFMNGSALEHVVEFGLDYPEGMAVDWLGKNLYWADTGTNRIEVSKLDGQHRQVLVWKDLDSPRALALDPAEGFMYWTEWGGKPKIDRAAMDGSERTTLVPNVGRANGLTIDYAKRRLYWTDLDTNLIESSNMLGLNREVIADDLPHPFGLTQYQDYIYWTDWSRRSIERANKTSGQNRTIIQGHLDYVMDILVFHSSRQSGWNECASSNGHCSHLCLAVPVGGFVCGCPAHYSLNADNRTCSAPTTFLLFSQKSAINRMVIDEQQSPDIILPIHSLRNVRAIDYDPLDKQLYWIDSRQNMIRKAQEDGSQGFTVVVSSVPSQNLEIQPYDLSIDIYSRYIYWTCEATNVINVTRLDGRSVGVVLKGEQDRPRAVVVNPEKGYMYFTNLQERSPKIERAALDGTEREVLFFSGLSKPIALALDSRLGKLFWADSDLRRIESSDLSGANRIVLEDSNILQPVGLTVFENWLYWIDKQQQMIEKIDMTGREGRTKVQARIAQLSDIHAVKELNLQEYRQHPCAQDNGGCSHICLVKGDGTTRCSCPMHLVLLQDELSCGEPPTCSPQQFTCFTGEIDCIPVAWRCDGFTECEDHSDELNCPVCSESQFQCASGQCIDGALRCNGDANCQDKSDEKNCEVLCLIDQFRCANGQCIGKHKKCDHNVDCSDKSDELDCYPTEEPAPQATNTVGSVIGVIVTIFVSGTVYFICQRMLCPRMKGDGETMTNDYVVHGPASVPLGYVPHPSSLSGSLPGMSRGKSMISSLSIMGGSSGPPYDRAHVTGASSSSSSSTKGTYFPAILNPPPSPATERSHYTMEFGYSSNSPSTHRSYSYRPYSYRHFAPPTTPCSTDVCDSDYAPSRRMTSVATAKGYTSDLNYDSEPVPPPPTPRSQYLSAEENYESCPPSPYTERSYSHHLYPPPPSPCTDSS
Sequence of LRP5 (O75197 32-1615): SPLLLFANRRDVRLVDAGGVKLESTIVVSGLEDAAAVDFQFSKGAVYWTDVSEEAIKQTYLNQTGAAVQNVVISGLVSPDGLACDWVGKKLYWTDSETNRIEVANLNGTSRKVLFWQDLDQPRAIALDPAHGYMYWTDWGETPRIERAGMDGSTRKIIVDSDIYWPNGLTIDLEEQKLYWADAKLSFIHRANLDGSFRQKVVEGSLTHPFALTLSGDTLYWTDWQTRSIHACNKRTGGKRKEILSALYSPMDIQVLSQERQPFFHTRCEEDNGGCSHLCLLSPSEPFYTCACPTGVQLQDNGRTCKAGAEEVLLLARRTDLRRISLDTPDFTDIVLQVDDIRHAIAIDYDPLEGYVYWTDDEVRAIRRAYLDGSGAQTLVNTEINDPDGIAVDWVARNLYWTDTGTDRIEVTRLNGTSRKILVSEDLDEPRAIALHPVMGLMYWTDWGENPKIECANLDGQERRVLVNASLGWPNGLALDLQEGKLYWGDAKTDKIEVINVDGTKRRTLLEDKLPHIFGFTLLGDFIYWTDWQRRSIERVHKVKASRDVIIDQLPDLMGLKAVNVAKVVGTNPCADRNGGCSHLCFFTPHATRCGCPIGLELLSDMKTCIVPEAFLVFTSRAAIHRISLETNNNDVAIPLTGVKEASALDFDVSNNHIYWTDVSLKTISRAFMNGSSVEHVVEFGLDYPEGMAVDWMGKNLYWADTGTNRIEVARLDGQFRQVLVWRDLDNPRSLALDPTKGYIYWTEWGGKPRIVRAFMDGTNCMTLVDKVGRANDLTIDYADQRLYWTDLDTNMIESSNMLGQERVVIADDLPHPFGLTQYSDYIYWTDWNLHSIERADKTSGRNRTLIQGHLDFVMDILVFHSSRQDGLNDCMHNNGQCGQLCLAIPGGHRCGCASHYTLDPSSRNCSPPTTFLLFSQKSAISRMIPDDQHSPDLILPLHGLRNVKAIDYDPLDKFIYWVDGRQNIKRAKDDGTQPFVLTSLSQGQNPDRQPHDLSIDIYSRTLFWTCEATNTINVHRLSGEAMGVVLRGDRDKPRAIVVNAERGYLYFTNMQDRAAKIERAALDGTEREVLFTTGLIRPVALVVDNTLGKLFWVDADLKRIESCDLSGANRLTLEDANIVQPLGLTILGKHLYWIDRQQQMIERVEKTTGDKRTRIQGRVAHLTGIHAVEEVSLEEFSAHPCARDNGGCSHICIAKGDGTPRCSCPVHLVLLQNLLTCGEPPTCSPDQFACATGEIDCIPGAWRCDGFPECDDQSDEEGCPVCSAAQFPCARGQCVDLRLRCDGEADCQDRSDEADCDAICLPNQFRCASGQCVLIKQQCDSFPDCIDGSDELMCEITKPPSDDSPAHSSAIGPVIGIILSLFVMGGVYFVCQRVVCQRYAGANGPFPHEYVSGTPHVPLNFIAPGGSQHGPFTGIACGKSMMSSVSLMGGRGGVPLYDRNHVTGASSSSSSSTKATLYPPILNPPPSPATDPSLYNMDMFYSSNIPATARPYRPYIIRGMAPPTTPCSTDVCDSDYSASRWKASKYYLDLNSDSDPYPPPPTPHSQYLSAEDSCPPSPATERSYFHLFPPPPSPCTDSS

B1: Mesd: recombinant wild-type mouse Mesd, polyhistidine tail at the N-terminus, lacks the signal peptide, expressed in E. coli (protein)
chain: ADTPGEATPPPRKKKDIRDYNDADMARLLEQWEKDDDIEEGDLPEHKRPSAPIDFSKLDPGKPESILKMTKKGKTLMMFVTVSGNPTEKETEEITSLWQGSLFNANYDVQRFIVGSDRAIFMLRDGSYAWEIKDFLVSQDRCAEVTLEGQMYPGKGGGSKEKNKTKPEKAKKKEGDRKPRASKEDNRAGSRREDL
modifications: left off: small tags and cut ends
notes: recombinant wild-type mouse Mesd, polyhistidine tail at the N-terminus, lacks the signal peptide, expressed in E. coli
**Q.** For B1, which “^125I-Mesd binding to other members of the LDLR family” value [1] is on record?
**A.** not significantly

**Q.** And the “Specific Mesd binding to U87 or SMC (express abundant LRP)” value [2]?
**A.** minimal

**Q.** What about the “Inhibition of ^125I-Mesd binding to cell surface LRP6” value (LRP6; 500 nM unlabeled competitor, ^125I-Mesd 5 nM, 2 hours at 4° C.) of the same molecule?
**A.** > 90%

**Q.** And the “Concentration at which Mesd specific binding saturates” value (LRP6; LRP6-transduced HT1080 cells, 3 hours at 4° C.)?
**A.** > 6.4 nM

**Q.** What about the “^125I-Mesd binding level” value (LRP6; ^125I-Mesd 5 nM, 4 hours at 4° C., LRP6-transduced HT1080 cells) of the same molecule?
**A.** 1320 fmoles/mg cell protein

**Q.** What about the “Effect of excess unlabeled Mesd on ^125I-Mesd binding” value (LRP6; unlabeled Mesd 500 nM, ^125I-Mesd 5 nM, 4° C.) of the same molecule?
**A.** completely eliminated this binding

**Q.** What about the “Specific ^125I-Mesd binding to LRP5” value (LRP5) of the same molecule?
**A.** specifically binds to Mesd, albeit at lower levels compared to LRP6
